Test results: patent US12618044B2, “Specification of functional cranial placode derivatives from human pluripotent stem cells” (MEMORIAL SLOAN-KETTERING CANCER CENTER, priority 2013, dated 2026)

Key:
Format in all cases: cell-based, human
hESC [1] = test: Floor plate induction from hESC (FOXA2 expression); details: for FP competency / FOXA2 induction: added to neural rosette stage cells
Method: (§1) For MS5 induction, established methods previously reported were used (Perrier et al., 2004). Feeder free neural induction was carried out as previously described (Chambers et al., 2009). Briefly, hESCs cultures were disaggregated using accutase for 20 minutes, washed using hESCs media and pre-plated on gelatin for 1 hour at 37° C. in the presence of ROCK inhibitor to remove MEFs. The nonadherent hESCs were washed and plated on matrigel at a density of 20,000 cells/cm2 on matrigel (BD) coated dishes in MEF conditioned hESCs media (CM) spiked with 10 ng/mL of FGF-2 and ROCK-inhibitor. The ROCK inhibitor was withdrawn, and hESCs were allowed to expand in CM for 3 days or until they were nearly confluent. The initial differentiation media conditions included knock out serum replacement (KSR) media with […] TGF-b inhibitor (SB431542, Tocris) and 500 ng/mL of Noggin (R&D). Upon day 5 of differentiation, increasing amounts of N2 media (25%, 50%, 75%) was added to the KSR media every two days while maintaining 500 ng/mL of Noggin and TGF-b inhibitor. For FP induction, Sonic C25II was added at 200 ng/ml. In some experiments, DKK-1 (R&D 100 ng/ml) FGF8 (R&D 50 ng/ml), Wnt-1 (Peprotech 50 ng/ml) and Retinoic Acid (R&D 1 uM) were added.
Tissue was fixed using 4% paraformaldehyde and Picric acid for 15 minutes, washed with PBS, permeabalized using 0.3% Triton X in PBS, and blocked using 10% Donkey Serum. Primary antibodies used for microscopy included PAX6 (Covance), TUJ1 (Covance), ZO1 (Zymed), BF1 (FOXG1, gift E.Lai), TH (Pelfreez), NKX6.1 (DSHB) and FOXA2 (SantaCruz).
Based on the hypothesis that FP specification in the mouse occurs at early developmental stages, at the time of or prior to neural induction, the inventors repeated SHH induction studies at Day 9, the time of rosette specification, using classic stromal-feeder mediated neural induction protocols (Elkabetz et al., 2008). Under this paradigm the inventors noticed a drastic change in cell morphology restricted to the cells treated with SHH-C25II (FIG. 15B). […] In addition to decreased expression of BF1 the inventors also observed decreased expression of PAX6, another maker expressed in the AN (FIG. 1E). […] The inventors performed dose response studies to understand how FP marker induction compared to that of NKX6.1 expression; a gene known to respond to lower concentrations of SHH. […] At higher concentrations FP markers rapidly rise, while NKX6.1 expression tapers off (FIG. 15G).
Using this protocol, in combination with compositions and methods of the present inventions, the inventors aimed to optimize FP differentiation by adding Sonic C25II at different time points during neural induction and assaying for FOXA2 expression. Differentiation was initiated upon NSB exposure, and Sonic C25II was added at Day 1, Day 3, Day 5, or Day 7 (FIG. 16A). […] Furthermore, the differentiation conditions establish a robust platform for inducing human FOXA2+ cells in vitro.

hESC [2] = test: Real-Time PCR of pluripotency and germ layer markers in treated hESC
Method: There is also evidence for suppression of alternative embryonic germ layers such as Noggin-mediated suppression of SOX17 (endodermal lineage) and SB431542-mediated suppression of Brachyury (mesodermal lineage) (FIG. 1C).
Total RNA was extracted using an RNeasy kit (Qiagen). For each sample, 1 ug of total RNA was treated for DNA contamination and reverse transcribed using the Quantitect RT kit (Qiagen). Amplified material was detected using Quantitect SYBR green probes and PCR kit (Qiagen) on a Mastercycler RealPlex2 (Eppendorf). Results were normalized to a HPRT control and are from 4-6 technical replicates of 2-3 independent biological samples at each data point.

hESC [3] = test: Placode induction from hESC (N-SB versus PIP, SIX1 expression); details: pre-placode cells
Method: A timed withdrawal of the BMP inhibitor Noggin during N-SB differentiation was also tested to determine if placodal fates could be induced via derepressing endogenous BMP signaling. A time course analysis was performed during which Noggin was removed at different time points of the N-SB protocol (FIG. 28A).
Withdrawal of the BMP inhibitor noggin during N-SB differentiation may enhance the emergence of placodal fates by de-repressing endogenous BMP signaling. To this end, a time course study was performed by removing noggin at different time points of the NSB protocol (FIG. 11A) while monitoring the induction of placodal marker (FIG. 11B) trophoectodermal, neurectodermal by qRT-PCR analysis at day 11 of differentiation. Withdrawal of noggin at day 2 or 3 of differentiation yielded efficient induction of Six1 while noggin withdrawal at day 1 of differentiation lead to the induction of Eya1 in the absence of Six1 expression.
Neural Induction and placode induction: Feeder-free neural induction was carried out as previously described (Chambers et al., 2009). Briefly, hESCs cultures were disaggregated using accutase for 20 minutes, washed using hESCs media and pre-plated on gelatin for 1 hour at 37° C. in the presence of ROCK inhibitor to remove MEFs. The non-adherent hESCs were washed and plated on matrigel at a density of 60,000 cells/cm2 on matrigel (BD) coated dishes in MEF conditioned hESCs media (CM) spiked with 10 ng/mL of FGF-2 and ROCK-inhibitor. The ROCK inhibitor was withdrawn after 24 hours, and hESCs were allowed to expand in CM for 2 days or until they were 95% confluent. The initial differentiation media conditions included knock out serum replacement (KSR) media with 10 μM TGF-β inhibitor (SB431542, Tocris) and 250 ng/mL of Noggin (R&D). Upon day 5 of differentiation, increasing amounts of N2 media (25%, 50%, and 75%) were added to the KSR media every two days while maintaining […] of Noggin and TGF-β inhibitor. Similar results could be obtained when using KSR-free conditions (E6 medium (Chen et al., 2011)) following adjustments in BMP signaling; data not shown). For placode induction, Noggin was removed at day3 of differentiation. In some experiments, BMP-4 (R&D 50 ng/ml), Noggin (R&D 250 ng/ml), DKK-1 (R&D 100 ng/ml), FGF8 (R&D 50 ng/ml), SU5402 (Tocris 10 μM), Wnt-3a (R&D 50 ng/ml), DAPT (Tocris, 10 μM), CHIR99021 (Stemgent, 3 μM), Cyclopamine (Tocris, 10 μM), Sonic Hedgehog (C25II-R&D 100 ng/ml), and Purmorphamine (Stemgent, 1 μM), were added.
Microscopy, antibodies, and flow cytometry: Cells were fixed using 4% paraformaldehyde for 15 minutes, washed with PBS, permeabilized using 0.3% Triton X in PBS, and blocked using 1% BSA. Primary antibodies used for microscopy included PAX6 (Covance, DSHB), TUJ1 (Covance), BRN3A (Chemicon), AP2a (DSHB), HNK1 (Sigma), PAX3 (DSHB), SIX1 (ABR, Atlas), ISL1 (DSHB), PERIPHERIN (Santa Cruz), GSU (gift A. McNeilly), CRYAB (Chemicon), DACH1 (Proteintech), EYA1 (gift Kawakami), E-CADHERIN (Abcam), FSH (gift A. McNeilly), GATA2 (Abcam), chick GFP (Abcam), hNCAM (Santa Cruz), GLUTAMATE (Sigma), KRT14 (Labvision), SIX6 (Atlas), LHX3 (Abcam), OVOL2 (Aviva), TFAP2A (DSHB), FOXG1 (gift E. Lai), hCA (Stem Cells), and Ki67 (Sigma). Appropriate Alexa 488, Alexa 568, Alexa 647 secondary antibodies (Molecular Probes) and/or DAPI counterstaining was used for visualization. For Flow Cytometry, cells were mechanically dissociated after exposure to accutase for 20 min at 25° C. To eliminate dead cell populations in FACS analysis, we used DAPI or 7-AAD according to manufacturer's recommendation. Cells were analyzed using FACScan (Becton Dickinson) and FlowJo software (Tree Star, Inc.).

hESC derived FP = test: A/P respecification of hESC derived FP by caudalizing factors
Method: as §1
The inventors contemplated the use of SIX6 as a putative marker of anterior FP identity. Thus SIX6 status of the hESC derived FP was used to mark respecification in response to known caudalizing agents such as FGF8, Wnt-1, and Retinoic Acid. Each of these caudalizing factors was added in combination with SHH and the resulting tissue was assessed for expression of the FP markers FOXA2 and NETRIN-1, the AN marker BF1, and putative anterior FP marker SIX6. FP generation was found not compromised in the presence of caudalizing factors.
The inventors discovered that different factors had varied effects on marker expression (FIG. 20C).
As mentioned above, studies had identified different enhancers that directed SHH expression to different A/P region along ventral axis (Jeong et al., 2008). […] In the absence of caudalizing factors (SHH C25II alone), LacZ expression was observed herein following transfection with the SBE2 but not the SBE1 enhancer supporting the hypothesis that hESC derived FP is anterior by default (FIG. 20D). In contrast SBE2 activity was abolished upon treatment with Wnt1 or FGF8 while SBE1 activity was induced under these conditions.

[4] = in combination with Sonic C25II

In the case of `O=C1Nc2cc(Br)ccc2/C1=C1/Nc2ccccc2/C1=N\O` [BIO, reference compound], the FOXA2 expression (hESC [1]; added early, BIO 100 nM) is reported as “increase” and the “FP competency / FOXA2 induction” value (hESC [1]) is reported as “not sufficient”.

With `NC(=O)c1ccc(-c2nc(-c3ccc4c(c3)OCO4)c(-c3ccccn3)[nH]2)cc1` [SB431542, 4-[4-(1,3-benzodioxol-5-yl)-5-(2-pyridinyl)-1H-imidazol-2-yl]-benzamide] the “Brachyury (mesodermal lineage)” value (hESC [2]) was “suppression”, the CDX2 expression (hESC [2]) was “dramatic increase” and the Nanog expression (hESC [2]) was “rapid loss”.

With Noggin the CDX2 expression (hESC [2]) was “Suppression” and the “SOX17 (endodermal lineage)” value (hESC [2]) was “suppression”.

B1: Wnt3A: WNT protein, caudalizing cue (protein, UniProt P56704 19-352, looked up)
Protein Wnt-3a: SYPIWWSLAVGPQYSSLGSQPILCASIPGLVPKQLRFCRNYVEIMPSVAEGIKIGIQECQHQFRGRRWNCTTVHDSLAIFGPVLDKATRESAFVHAIASAGVAFAVTRSCAEGTAAICGCSSRHQGSPGKGWKWGGCSEDIEFGGMVSREFADARENRPDARSAMNRHNNEAGRQAIASHMHLKCKCHGLSGSCEVKTCWWSQPDFRAIGDFLKDKYDSASEMVVEKHRESRGWVETLRPRYTYFKVPTERDLVYYEASPNFCEPNPETGSFGTRDRTCNVSSHGIDGCDLLCCGRGHNARAERRREKCRCVFHWCCYVSCQECTRVYDVHTCK
For B1, the “FP competency / FOXA2 induction” value (hESC [1]) was “not sufficient” and the “otic placode compatible population” value (hESC [3]) was “induction of a population of cells coexpressing SIX1 and SOX10”.

B2: DKK-1: recombinant DKK-1, Wnt signaling inhibitor (protein, UniProt O94907 32-266, looked up)
Dickkopf-related protein 1: TLNSVLNSNAIKNLPPPLGGAAGHPGSAVSAAPGILYPGGNKYQTIDNYQPYPCAEDEECGTDEYCASPTRGGDAGVQICLACRKRRKRCMRHAMCCPGNYCKNGICVSSDQNHFRGEIEETITESFGNDHSTLDGYSRRTTLSSKMYHTKGQEGSVCLRSSDCASGLCCARHFWSKICKPVLKEGQVCTKHRRKGSHGLEIFQRCYCGEGLSCRIQKDHHQASNSSRLHTCQRH
In the case of B2, the “FOXA2+ cells” value (hESC [1]; added along with SHH at Day1, 9 days of SHH exposure) is reported as “increase”, the BF1 transcript (hESC [1]; [4]) is reported as “more rapid rise” and the “FOXA2 message and protein” value (hESC [1]; [4]) is reported as “decrease”.

B3: Wnt-1: caudalizing factor, wingless-type MMTV integration site family, member 1 (protein, UniProt P04628 28-370, looked up)
Proto-oncogene Wnt-1: ANSSGRWWGIVNVASSTNLLTDSKSLQLVLEPSLQLLSRKQRRLIRQNPGILHSVSGGLQSAVRECKWQFRNRRWNCPTAPGPHLFGKIVNRGCRETAFIFAITSAGVTHSVARSCSEGSIESCTCDYRRRGPGGPDWHWGGCSDNIDFGRLFGREFVDSGEKGRDLRFLMNLHNNEAGRTTVFSEMRQECKCHGMSGSCTVRTCWMRLPTLRAVGDVLRDRFDGASRVLYGNRGSNRASRAELLRLEPEDPAHKPPSPHDLVYFEKSPNFCTYSGRLGTAGTAGRACNSSSPALDGCELLCCGRGHRTRTQRVTERCNCTFHWCCHVSCRNCTHTRVLHECL
With B3 the “midbrain FP markers CORIN and NOV” value (hESC derived FP) was “significant increase”, the SBE1 activity (hESC derived FP; SHH enhancer LacZ construct) was “induced” and the SBE2 activity (hESC derived FP; SHH enhancer LacZ construct) was “abolished”. The BF1 expression (hESC derived FP; in combination with SHH) was “dramatic reduction”, the “FP production based on FOXA2 and Netrin-1 expression” value (hESC derived FP; in combination with SHH) was “significantly potentiated” and the SIX6 expression (hESC derived FP; in combination with SHH) was “significant reduction”. For the same molecule, the “FP competency / FOXA2 induction” value (hESC [1]) was “not sufficient” and the “FP competency / FOXA2 induction” value (hESC [1]; listed as WNT1) was “no effect”.
